We go through 47 sequences from the NTF2 design screens of Basanta et al. (2020).

The data set is described as follows: protease stability score; higher = more stable; yeast display proteolysis, trypsin and chymotrypsin.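 Also: relative to predicted unfolded state with 0 unfolded-like and 1 meaning tenfold more protease.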
In the case of “DHLEEIADKMAKDFIHIFLTGDEHLHNRLADPNVRLHVNGRDSHGRENWSRMLTQILREMRVKDIKITSSEVQGEWSVSRTRMNVDIDGKVEEIETEIIILVVNGKLESSTIVID”, the protease stability score was -0.103.
With “DHLEELHETITKLWLEARRTGDEHLFRELMDPHVRIHIGDFEHHGREEALKAFDDIDRHLGVKHHHVDSWHVVNGQMIIDGRLHFDGQTRKVHIDLVIIDGRIEEIREEIR”, the protease stability score is 0.617.
For the sequence “DHLHEDSKEAFHLWKELSRTGDPKEFADNVDPNVRILINGKRYHGMEHLEHLMMELGIKHSEITRIDTIGDKLHLDGHNRFNGRTVDVHILSNKINGRWVIEEVEVL”, the protease stability score was 1.14.
Sequence “DHLRELMERVLERYRRALETGNFEELRNLADPHYRVDIDGQELIGMDEYKRHLIKIKNLKIHHVEIKDVKVQGDKAHVDQEDDIEFDGRRMRLRLHYIWLKFNGRWLLHSMEVE” registered a protease stability score of 1.85.
For the sequence “DHLRHTVERMVLHLLRLSLTGDEEEWLKLLDPNTKLEVGDKTRHGREDVAQFLLEMRVERVEVSDYRFNNVNGVVRVEIDGHFDFEYDGKREDSRVEIYLLFEKVNGKWHLKFVKVVFK”, the protease stability score was found to be 1.69.
Sequence “DHMDEELKEFLRHFLEYFRTGDFDSLYKLIDPHVKSDINGQEIHGMDLQSFWHRHIRERLGVNHMHIEITEIRYINGRAEVYGKLEVNVNGKRFEHDVHMFNLKVDGKWILESLEIR” had a protease stability score of 2.28.
As for “DHMEEDVRVAVKIWEETYRTGDEQEINDLVDPNVRVNINGQDYHGRHWLRQIIIEDRRRADHIEIRIDHIEVIGDKVILRGLVIMIQGDKRFDIRMRIFDRKVNGRWHLHNLEQE”, the figure is 2.08; as for “DHMERLLKHVARLFIHALHTGDESILTDLLDPNVRVHIHIGDKEIRLHGREHVRHYLEHELTHWRTEFHLTHFDIVGNKFENHTNVIIRIDGVEIRLDRRHEVVLYDGKIEEVIVRVE”, 2.37.
The sequence “DHNKEAADHILHLLRQSWRTGDEEIFQRLIDPNVKLQVGDKQFHGREEVTRWIQLYLLRFKGITIHDIEVKEVRTYDGRVEAREIHHNHVNGQDHSLDVHLYIVKVNGQWRLESMHVN” came in with a protease stability score of 1.77.
“DHNKELWERIAEWLIRLQETGNEEELMKNMDPHTRLLVNGVTAHGRDTVTHYYREFLKELGVDVLELKRVHVQGEKVENDGQLHYNGKTHHSRINFFVINGRIHHIELHFE” yielded a protease stability score of 0.745.
As for “DHQEEEAKEFTELLMRNLFTGDEDSLQEMLDPHVRIEVDIGDKHRHHHGREEISHFLVRLQHELGVDHIRLSHIEVFNGRAEVHIESYIGNKRSENVFVVTKFNGVWRVQRIIIRVE”, the figure is 1.2; as for “DHQEESRSKFLNDILRIQRTGDFEKIYENVDPDVRIHIGDKEWHGREQATKVLTEWRVEHFDLKSMHIQGDKVHIHGHMIYNINGQERRSDIEIVLLKFNGRWFIHSMRID”, 1.67; as for “DHQEHIIKVSLEILLESARTGDERSLERLFDPNVRIINENEERHGREALEILLKRIDHIHHLNIRDTRIQGDFLITEVHVRINVNGVHIQNDMVLYAWKVNGRWHIRSIEFK”, 1.39.
“DHQEKRTTEANEMFREAIETGDEKTLTRLVDPNVKIIVGDKRYHGREWFLHLMLHEILHLRVRIHTEDYRVVDGRIEFITHLEIEIGDKTVRRETFVFVDKINGRWLYQSFQDG” had a protease stability score of 0.773.
As for “DHQERHLREFAHEVEEAWHTGDWKDMFRLFDPNTRVDFHFENHDLHLHGRESMVRFIRDFLDKFKNIRLQLTSRDRQGDKVHLTEEFHINGRIMVIHVNFDIVNGKWKRLELDFIDT”, the protease stability score came to 1.25.
Next, “DHQRDLLKEARERLLHSIETGDEELWRRLFDPETLLIAENHSSHGREARHDWKKRFDVIDHLEIRTRDVDMIGDKIYVEGKLDYITKYDGVTRNYTNTVHFIATKINGRWVIESVRFE”: 1.09.
“DHRDEVFEELVRLIIHFLETGDWKSLEELADPNVRVTVFYNGRQDNNIGRKQWAEAWERLLHLLGIKHHHMHRYHIQGDKIHIIMNFVVNGQEFTVHIDITVFNGRMKSSRIHVE” displayed a protease stability score of 1.27.
Next, “DHRDRYAEEVAHRLLKLRHTGDEEIYHEFADPNDRLIIWIGDKSIHSHGRSLVVQVLRRLHEHWRLEDMFIHDEKLVGEKSNMDIHVVGNINGKRMETTEKFTVRVINGRLHTLEIHLD”: 0.474; “DHREEEQKRLTEEFITALKTGDEERWKELLDPNVKMHINGKDVVGREIAAKDLLDHWKNLGIKHIITHRIELQGEKVRIDTEERFNGRSVKTTMIIIVINGRLESFEFHVH”: 0.653; “DHREEESKRYLDDYSRAVTTGDEDRLTELLDPNTKLNYNGQEYHGMEKYKEVLHKILTEIRFESHHVETFRVVGNKLQLDTHIKGHINGKHIRLETHVDIVKINGRWLIDSVRFQ”: 0.29.
“DHREEHDHEISELMREALLTGDEQLISHLADPNVRFEVFVGDKVIRWVGRESMMEAFERWVREIRIEDLKVKHVDIFNGRVDVVTTLHVEFDGRKHDLETRLIFEVVDGKVKHLQVHHH” came in with a protease stability score of 1.36.
Take “DHREELLHRIYELWEMVQTTGDFEKLTDLLDPDVYVNINGRNLIGRELRIRFMREIRMEIKHYKHERFHFQGDKAHIHGRLDREINIGDKHHREDITIDVHLFVIDGVIRSFEIRLI”: the protease stability score worked out at 1.33.
As for “DHREHRSHRIAEWILRNLVTGNEDEISKLLDPDARVIINGQEVIGREEINRMLRHVFNEIRIHDIEIRDLEIQGEFAFVDTRLDGEFDGRRIKQKSELRIVVINGRVRELEIRIH”, the figure is 1.52; as for “DHREKELEKMARIFIHNLVTGDWRSLEKLADPDAKSEVIIGDKHIEHVGRHEVWKMLFEIRWEQVEVHDIRIYNGRVEIDGHMKGDIDGRRIETDTKIRLTIVNGVVQTFHMEIR”, 2.23; as for “DHREKEVHFMAKWIVEIFQTGDEDMWRHLADPDVRLDIVQGEKRDNNVGREVSEKTLKELRHHWGLERVEVRVDHIDHQGDKARVDGTVNINGVHFKTEIVIIVVDGRFKRVKYIIG”, 1.39.
The sequence “DHRESLRDDMEELLLEVIHTGDWHNYLKLLDPNARLVVGDKEYMGRERVLHWFKEKLDKIPGAKIELEDKREIGNKVELDFDMHVGDKSLRLHIDLRKVNGRWLIEHIEIR” yielded a protease stability score of 1.47.
As for “DHTEHDARLVMEIWLRILLTGDWETLEKMLDPHVRLQINIGDKRHTHHGREDFLKRLYDLIRELGVDHWTLDEKRVQGNKTRARVTMYVGDKSYDVEIILVAVNGRIREVTIEIH”, the protease stability score is 2.08.
As for “DHTHEAVEHLWKLLLHAIATGDFRILSHLLDPNVRIIFNGRTLVGRQSLEILLKRFDHEKIEEVRLRSTRIQGNFVDLDTEIIMVLHYDGKEYRIHTETHVHVVKVDGRWLIEELRID”, the figure is 2.62; as for “DHTKKMAEEALRDFWRDFRTGDEDSLNKMADPNVRILIGDKEVVGRERMVELFREVLKKYKNARVITDIEDLDDQGNWVHSDVRFHLHVGDKTVDIEREIVMRKVNGRWYIETHVVK”, 0.397; as for “DHVDEETEKMTNEITKALLTGDEDRLLELADPHVRVIVHVGDKTIHLVGRELMVEEYRRWVKEAGFDKVHHEKKHSDFVDGRAEVHSKVDVGDKHVEYRIIITKVNGKWVIKSIIIIVR”, 2.15.
For the sequence “DHVEEDARTRLKLFLTHWLTGDEHSTNELFDPNVRIDVNGKIIVGRHVLSEEWSRLGIKHSILHIDHIHIDEDEIHIDGILRLIFENHVLDLRVNLHAEKYDGRWHSSEVQVK”, the protease stability score came out at 1.25.
In turn, “DHVEEEAEEFVRNFIHNMRTGNWKYMEELLDPNVRLRYGDKDHHGREEMVKWIEEAFKKFKNLTIEIKHINIIGDKLIFDLHVEFNGKHHQLHLIVTKIDGKWISKSIHVD” yielded a protease stability score of 1.47.
Sequence “DHVEEVVRQMVSHILRDYITGDEKSYASLMDPNMRLHIGDKDSIGREEVLRLIREHTRHLGIKHFHLHDVRIRIQGEYVEIKIDVHLEFNGRKFRVIIHLEMHKVNGRWRLHEETIEIE” showed a protease stability score of 2.61.
“DHVEHEVENVLRKTLHSFLTGDFELLHRLADPHVRSDINGVEIHGWEKLSKWILTLIEQVDHSEFDLKDIRLQGDFVRIHGELILRFNGKHIEIRVQSHVEKIDGRWVIHAVKLK” returned a protease stability score of 1.11.
The sequence “DHVEKEARKFEKLLRHAETTGDEELYLKMIDPNVRIIIGEKNLVGREEVEKWLQTLGVSKVEIRHVEEKDIEIDEDHIRIHGRIIGRYNGKERDFEKHIIVQKIDGKWVLHTEEIR” had a protease stability score of 0.385.
Regarding “DHWEELIERALDFHRSLLRTGDPEVLERQADPNAKFVVGDKTLHGRESVSDWMNRVKNIQIHMRDLHVIDGKIEMHVQMHYDGRTSHTRLIADKVDGRWIYRSVSVE”, the protease stability score was found to be 0.69.
“DHWEHVERMYSHEVLHMLETGDEHKFNKLMDPNARIDVGEWDLIGMHRVSHALKEVRDELGIKHSEVKHVDIFNGRVEIHTEVHVDGRSHKVRIEVIYVNGRTKWMRYEQH” displayed a protease stability score of 0.717.
“DIEERDAEEAVRRWLHFLQTGDEDWLREQLDPNTRIDIDGREIHGMEEVVNVLLRESRHLGVDVLSFELRHVDRQGDKIIVYGRIRLRVNGRDTEIEVILYMVKVNGVWLMKSMEFR” displayed a protease stability score of 1.89.
As to “DKDDHDFERVLRIFIESIRTGDEDSIRRLADPSVKHVVNGKEFHGREDWEEMIRRIDHIRDFELKSVSIYNGKIEVDGVLTGIFNGREDKTHVHIIMMKVNGRWYIKSWELK”, the protease stability score stood at 1.93.
Sequence “DKDEDDERKAIDTLVDVLRTGDEHTLQRLLDPNVQLHIGDKRHHGRDEVIRVLHELHRRLGVTRVEVEIQEYHMVDGQIDLRVHLKYGDKTIESEFVLYKVNGRWFVKSLHFK” gave a protease stability score of 2.24.
With “DKDEEDLRHVLHLLSRAFMTGDEDELTKLMDPDVRIYYGDKRLHGREEVTRWIREIRAWVHDSKIRHIRRQGEKIILHGEMDMIFDQGDKEVRTRTEITIHTTKINGRWLLNELELR”, the protease stability score stood at 2.6.
Take “DKDEKETKDAIHILLHVARTGDERLLNTLFDPDVKLEVGDKSHHGRETITKVWKDWFHEWRIRDVTYHHVESQGDKIHVDLRIDGIFDGQRTHIESHNVLLKVNGQWLLRREVVH”: the protease stability score amounted to 0.512.
The sequence “DKDERMRNEAFKITEHLHHTGDWHTRSRLADPEVQLIIGDKEYHGRETASEVLHKYLKRLGVDHLELKHFEVKMFDGQLHIHLHIELHINGVIYEVHIHIVMEKINGRWVIKHERIEFR” displayed a protease stability score of 1.01.
With “DKEDEDIKHLVDRIIHFWETGDFESLLKNVDPNARVEEIFNGKKYHSHGREEFERTLQEWLDRYKNVTIHIREVRMFNGVAIIHAELLIGDKRHEVHLHWFIYDGVLRHVRIQFE”, the protease stability score was determined as 1.49.
The sequence “DKEDEDMERIVKEFLHLHLTGDWKLMAELLDPDVRVEFDGKRYHGRENWSKLLEDEFRRIKNATIRIEIKHIDLQGDFARSEVVLHIIVNGVEHRHEMQIDMKVVNGRIHSIRIVRV” displayed a protease stability score of 1.47.
For “DKEDEEAKRLLEIFITHHLTGDEEHYQTLMDPHARLDFDGRHNVGREKITEFLRRFGADHVHIKHIEVELYNGKLYVRIEVELRIGDKTMDMIWVLQLRKVDGRWHIRRETWILL”, the protease stability score was 0.703.
The sequence “DKEDEERKRWEERMLQAITTGDEKTLEDLIDPNARYEINGRERHGREDLLKEFSKIKNVRIELRIHHVRFYDGQLEIDLRLILHIDGVDLRHETRIHAQKYDGVWYIKDITFH” registered a protease stability score of 1.02.
